Source: patent publication US20140356379A1 (CENTRE NATIONAL DE LA RECHERCHE SCIENTIQUE CNRS, published 2014)
Substitutions are numbered along the chain they refer to.

T1: recombinant human sPLA2-V (human, UniProt P39877 21-138)
T1 construct: The cDNA for the mature enzyme was cloned in frame to an initiator Met codon; also called hGV; human PLA2-V
T1 sequence: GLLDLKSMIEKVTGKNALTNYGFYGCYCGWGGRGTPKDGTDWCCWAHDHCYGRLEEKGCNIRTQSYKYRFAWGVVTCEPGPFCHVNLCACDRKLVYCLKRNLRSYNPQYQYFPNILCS

B1: 19F3 antibody (antibody, V domains shown)
VH: EVQLQLSGADLVKPGASVKLSCTASGFNIKDSYIHWVKQRPEPGLEWIGRIDPANGNTKYDPKFQGKATITADTSSNTAYLQLTSLTSEDTAVYYCARDVVALDYWGQGTTLTVSS
VL: QIVLTQSPAIMSASPGEKVTMTCSASSSVSYMYWYQQKPGSSPRLLIYDTSNLASGVPVRFSGSGSGTSYSLTISRMEAEDAATYYCQQWSSYPLTFGAGTKLELKR
notes: also called mAb #19F3; hybridoma CNCM I-4522
B2: biotinylated monoclonal antibody #18G6 (antibody, V domains shown)
VH: QVQLQQSGPELVKPGASVKMSCKASGYTFTDYVITWVKQRTGQGLEWIGEIYPGSGSTYYDEKFKGKATLTADKSSNTAYMQLSSMTSEDSAVYFCARWFPYFDYWGQGTTLTVSS
VL: B1 VL with M21I, T22S, R44K, L45P, L46W, D49R, V59A, R76S, W90Y, S91H
modifications: biotinylated with a Pierce kit (ref. 21435); sites not stated
notes: also called #18G6-Biot; 18G6-Biot
B3: 18G6 antibody (antibody, V domains shown)
VH: B2 VH
VL: B1 VL with M21I, T22S, R44K, L45P, L46W, D49R, V59A, R76S, W90Y, S91H
notes: also called mAb #18G6; hybridoma CNCM I-4521
B4: biotinylated monoclonal antibody #19F3 (antibody, V domains shown)
VH: B1 VH
VL: B1 VL
modifications: biotinylated with a Pierce kit (ref. 21435); sites not stated
notes: also called #19F3-Biot; 19F3-Biot

Columns and labels:
[1] = biological target: T1, recombinant human sPLA2-V; test: indirect ELISA on coated recombinant human sPLA2-V, one-site saturation fit (relative Kd)
[2] = biological target: T1, recombinant human sPLA2-V; test: indirect ELISA on coated recombinant human sPLA2-V, anti-mouse IgG-HRP detection, one-site saturation fit
[3] = biological target: T1, recombinant human sPLA2-V; test: indirect ELISA on coated recombinant human sPLA2-V, streptavidin-HRP detection, one-site saturation fit

| Binder | Kd [1] | Kd [2] | Kd [3] |
| --- | --- | --- | --- |
| B1 | 0.0842 nM | 0.089 nM | – |
| B2 | – | – | 0.31 nM |
| B3 | 0.305 nM | 0.53 nM | – |
| B4 | – | – | 0.0082 nM |
